Experimental data taken from patent US20250026846A1 (JCR PHARMACEUTICALS, published 2025).

What was measured:
[1] = target: T1, Fab GS-GAA (fusion protein between Fab anti-hTfR antibody 3N and hGAA); assay: BLI (Octet RED96), His-tagged TfR ECD on Ni-NTA sensor; Table 21, Fab-GS3-GAA
T1 construct: also called Fab GS3-GAA; Fab-GS3-GAA

[2] = target: T1, Fab GS-GAA (fusion protein between Fab …); assay: BLI (Octet RED96), His-tagged TfR ECD on Ni-NTA sensor; Table 17-2, Fab GS-GAA
[3] = target: hGAA-anti-hTfR antibody 3N (IgG4); assay: BLI (Octet RED96), His-tagged TfR ECD on Ni-NTA sensor
Experimental: (§1) Each of the sample solutions prepared above by 2-fold dilution steps was added, 200 μL/well, to a 96-well plate, black (Greiner Bio-One Inc.). Each of the r human TfR-ECD (Histag) solution and the r monkey TfR-ECD (Histag) solutions prepared above was added, 200 μL/well, to predetermined wells. To respective wells for baseline, dissociation and washing were added HBS-P+, 200 μL/well. To wells for regeneration were added 10 mM Glycine-HCl (pH 1.7), 200 μL/well. To wells for activation was added 0.5 mM NiCl₂ solution, 200 μL/well. The plate and biosensor (Biosensor/Ni-NTA: ForteBio Inc., a division of Pall Corporation) were set in the prescribed positions of Octet RED96.
(§2) The measurement was performed at 25 to 30° C.
(§3) The affinity of the hGAA-anti-hTfR antibody 3N (IgG4) obtained in Example 26 to human TfR and monkey TfR was measured in accordance with the method described in Example 23.

[4] = target: T1, Fab GS-GAA (fusion protein between Fab …); assay: as above
Experimental: as §1, §2, §3

T1 sequence (light, as listed by the source, chain 1 of 2): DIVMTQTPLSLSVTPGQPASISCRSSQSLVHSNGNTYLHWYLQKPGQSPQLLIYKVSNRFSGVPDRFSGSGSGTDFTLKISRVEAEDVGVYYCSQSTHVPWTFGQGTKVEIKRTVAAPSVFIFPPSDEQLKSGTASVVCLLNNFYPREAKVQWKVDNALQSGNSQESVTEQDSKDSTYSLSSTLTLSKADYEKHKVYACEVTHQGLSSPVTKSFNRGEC
T1 sequence (heavy, as listed by the source, chain 2 of 2): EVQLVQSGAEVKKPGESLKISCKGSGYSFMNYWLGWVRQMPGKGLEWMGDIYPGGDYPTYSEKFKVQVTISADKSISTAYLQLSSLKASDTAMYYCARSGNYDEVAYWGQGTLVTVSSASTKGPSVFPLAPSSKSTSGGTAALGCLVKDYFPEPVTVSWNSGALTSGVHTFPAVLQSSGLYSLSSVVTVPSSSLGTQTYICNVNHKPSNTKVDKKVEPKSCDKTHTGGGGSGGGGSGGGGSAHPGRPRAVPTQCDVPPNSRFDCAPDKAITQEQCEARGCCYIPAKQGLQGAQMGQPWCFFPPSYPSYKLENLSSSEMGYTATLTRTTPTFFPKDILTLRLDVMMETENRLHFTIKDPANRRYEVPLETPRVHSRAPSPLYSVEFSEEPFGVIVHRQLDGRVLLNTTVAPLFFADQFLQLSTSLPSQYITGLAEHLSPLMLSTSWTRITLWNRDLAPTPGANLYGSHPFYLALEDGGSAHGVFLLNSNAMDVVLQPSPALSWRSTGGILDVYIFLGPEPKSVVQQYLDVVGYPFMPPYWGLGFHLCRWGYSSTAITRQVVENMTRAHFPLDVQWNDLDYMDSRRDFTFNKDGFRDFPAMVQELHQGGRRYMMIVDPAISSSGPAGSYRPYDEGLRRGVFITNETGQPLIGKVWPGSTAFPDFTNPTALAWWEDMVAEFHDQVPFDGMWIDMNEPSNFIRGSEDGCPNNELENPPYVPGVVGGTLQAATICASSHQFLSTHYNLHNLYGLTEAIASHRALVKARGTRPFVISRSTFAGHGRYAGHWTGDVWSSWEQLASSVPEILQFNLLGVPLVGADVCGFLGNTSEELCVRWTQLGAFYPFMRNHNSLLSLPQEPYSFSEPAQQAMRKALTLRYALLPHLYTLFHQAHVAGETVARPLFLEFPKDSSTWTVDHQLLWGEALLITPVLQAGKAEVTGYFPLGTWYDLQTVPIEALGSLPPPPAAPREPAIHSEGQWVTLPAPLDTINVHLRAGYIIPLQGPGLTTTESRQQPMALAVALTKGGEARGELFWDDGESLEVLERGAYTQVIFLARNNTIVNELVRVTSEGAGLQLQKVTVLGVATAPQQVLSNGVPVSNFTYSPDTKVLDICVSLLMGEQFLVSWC
hGAA-anti-hTfR antibody 3N (IgG4), sequence (light, as listed by the source, chain 1 of 2): as the sequence (light, as listed by the source, chain 1 of 2) above
hGAA-anti-hTfR antibody 3N (IgG4), sequence (heavy, as listed by the source, chain 2 of 2): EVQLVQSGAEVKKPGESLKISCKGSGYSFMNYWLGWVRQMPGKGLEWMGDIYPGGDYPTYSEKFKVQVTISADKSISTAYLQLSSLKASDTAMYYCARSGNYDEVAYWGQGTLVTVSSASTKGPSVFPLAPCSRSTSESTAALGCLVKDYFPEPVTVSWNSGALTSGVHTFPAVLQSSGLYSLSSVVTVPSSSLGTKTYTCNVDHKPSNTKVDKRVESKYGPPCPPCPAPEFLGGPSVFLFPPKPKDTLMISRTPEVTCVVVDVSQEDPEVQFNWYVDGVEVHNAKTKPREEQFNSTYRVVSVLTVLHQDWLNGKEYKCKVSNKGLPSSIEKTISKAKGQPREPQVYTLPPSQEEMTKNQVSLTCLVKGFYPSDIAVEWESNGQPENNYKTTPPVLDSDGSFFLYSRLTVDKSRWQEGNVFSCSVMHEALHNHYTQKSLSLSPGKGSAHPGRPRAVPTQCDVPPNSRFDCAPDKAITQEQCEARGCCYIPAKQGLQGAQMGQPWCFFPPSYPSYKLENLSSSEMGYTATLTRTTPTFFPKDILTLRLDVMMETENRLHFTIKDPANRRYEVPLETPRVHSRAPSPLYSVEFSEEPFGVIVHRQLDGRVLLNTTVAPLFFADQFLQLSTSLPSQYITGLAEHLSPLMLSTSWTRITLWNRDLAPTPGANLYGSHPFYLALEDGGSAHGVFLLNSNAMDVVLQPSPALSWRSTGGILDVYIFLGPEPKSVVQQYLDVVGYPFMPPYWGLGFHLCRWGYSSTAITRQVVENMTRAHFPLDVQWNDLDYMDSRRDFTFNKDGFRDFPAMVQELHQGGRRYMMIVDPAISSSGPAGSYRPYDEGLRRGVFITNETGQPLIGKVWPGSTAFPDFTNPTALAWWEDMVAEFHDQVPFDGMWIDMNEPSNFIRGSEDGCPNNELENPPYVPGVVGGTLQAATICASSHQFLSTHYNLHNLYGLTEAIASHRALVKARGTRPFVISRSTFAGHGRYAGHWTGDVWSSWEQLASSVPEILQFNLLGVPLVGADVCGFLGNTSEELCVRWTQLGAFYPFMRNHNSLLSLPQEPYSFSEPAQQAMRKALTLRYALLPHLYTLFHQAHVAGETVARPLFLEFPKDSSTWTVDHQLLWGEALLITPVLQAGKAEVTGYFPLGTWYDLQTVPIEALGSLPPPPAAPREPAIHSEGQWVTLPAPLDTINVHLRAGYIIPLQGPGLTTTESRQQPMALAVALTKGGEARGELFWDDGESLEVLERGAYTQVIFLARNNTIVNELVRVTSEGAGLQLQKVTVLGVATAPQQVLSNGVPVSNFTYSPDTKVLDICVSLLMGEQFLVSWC

B1: recombinant monkey TfR (r monkey TfR: Sino Biological Inc.), crab-eating monkey TfR extracellular region with a histidine tag at the N-terminus (receptor)
chain: CKGVEPKTECERLAGTESPAREEPEEDFPAAPRLYWDDLKRKLSEKLDTTDFTSTIKLLNENLYVPREAGSQKDENLALYIENQFREFKLSKVWRDQHFVKIQVKDSAQNSVIIVDKNGGLVYLVENPGGYVAYSKAATVTGKLVHANFGTKKDFEDLDSPVNGSIVIVRAGKITFAEKVANAESLNAIGVLIYMDQTKFPIVKADLSFFGHAHLGTGDPYTPGFPSFNHTQFPPSQSSGLPNIPVQTISRAAAEKLFGNMEGDCPSDWKTDSTCKMVTSENKSVKLTVSNVLKETKILNIFGVIKGFVEPDHYVVVGAQRDAWGPGAAKSSVGTALLLKLAQMFSDMVLKDGFQPSRSIIFASWSAGDFGSVGATEWLEGYLSSLHLKAFTYINLDKAVLGTSNFKVSASPLLYTLIEKTMQDVKHPVTGRSLYQDSNWASKVEKLTLDNAAFPFLAYSGIPAVSFCFCEDTDYPYLGTTMDTYKELVERIPELNKVARAAAEVAGQFVIKLTHDTELNLDYERYNSQLLLFLRDLNQYRADVKEMGLSLQWLYSARGDFFRATSRLTTDFRNAEKRDKFVMKKLNDRVMRVEYYFLSPYVSPKESPFRHVFWGSGSHTLSALLESLKLRRQNNSAFNETLFRNQLALATWTIQGAANALSGDVWDIDNEF
notes: Bought from Sino Biological; also called r monkey TfR-ECD (Histag); not shown: histidine tag at the N-terminus
For B1, which Kd [1] is on record?
The Kd was 30.5 nM.

And the koff [1]?
Its koff is 0.0145 s⁻¹.

What about the kon [1] of the same binder?
Its kon is 473000 M⁻¹ s⁻¹.

And the Kd [2]?
Its Kd is 15.2 nM.

What about the Kd [3] of the same binder?
Its Kd is less than 0.001 nM.

And the koff [3]?
The koff was less than 1e-07 s⁻¹.

What about the kon [3] of the same binder?
The kon was 203000 M⁻¹ s⁻¹.

What about the koff [4] of the same binder?
Its koff is 0.00501 s⁻¹.

And the kon [4]?
Its kon is 329000 M⁻¹ s⁻¹.
